Test [1] has as its target soluble IL-6R in cynomolgous plasma (cynomolgus monkey, UniProt A0A2K5WN54). Briefly: ELISA 2, periplasmic extract; competitor IL-6; cyno plasma. The protocol: (§1) In this ELISA, plasma was used as a source of native soluble IL-6R. By this assay, we aimed to confirm the alphascreen results and to get a view on the cross-reactivity of the clones towards cynomolgous IL-6R. Human plasma (ELISA 1 and ELISA 3) or cynomolgous plasma (ELISA 2) were pre-incubated with a dilution of the periplasmic extract of the clones together with human IL-6 (50 ng/mL). Subsequently, plasma soluble IL-6R was captured on a B-N12 coated plate and bound IL-6 was detected using anti-IL-6 antibody BAF206 and streptavidin-HRP (ELISA 1 and ELISA 2). The ELISA signal dropped when the Nanobody clone could compete with IL-6 for binding to soluble IL-6R. ELISA 3 was a parallel ELISA in which the detection antibody was replaced by anti-IL-6R antibody BAF227 to exclude false positive competitors, which actually compete with B-N12 (e.g. family 2). Depicted in Table C-5 is the ratio of the OD450 value of the test sample versus the blank OD450 (mock sample). Clones were ordered based on ELISA 1 data.
(In general: In an ELISA, binding on a coated surface is turned into a signal by an enzyme label.)

Test [2] addresses T1, native soluble IL-6R in human plasma (human, UniProt P08887). Description: ELISA 1, periplasmic extract; competitor IL-6; human plasma. The protocol:
as §1

The target in test [3] is T1, native soluble IL-6R in human plasma. Description: ELISA 3, periplasmic extract; competitor BN-12; human plasma. The procedure:
as §1

B1: IL6RPMP101A4 (VHH)
VHH: EVQLVESGGGTVQAGGSLKLSCAASGRTFTNYAMGWFRQAPGKEREFVAAIAYATHFADSVKGRFTISRGNAKNTVYLQMNSLKPEDAAVYYCAADLSLSKMVSKITSDMDYWGKGTLVTVSS
Regarding B1, the OD450 ratio sample/blank in test [1] amounted to 0.713; in test [2], 0.792; in test [3], 0.99.

B2: IL6RPMP106B2 (VHH)
VHH: EVQLVESGGGLVQAGGSLRLSCAASGSIFRINAMGWYRQAPGKQRELVAAAISGGSTNYADFVKGRFTISRDNAKNTVYLQMNSLKPEDTAVYYCNALVVSHNYSDYVPFPDDYWGQGTQVTVSS
For the molecule B2, the values for the OD450 ratio sample/blank in test [1], in test [2] and in test [3] were 1.02, 0.99 and 0.984, respectively.

B3: IL6RPMP101H6 (VHH)
VHH: EMQLVESGGGLVQAGGSLRLSCTASGRTFTDYDMGWFRQAPGKEREVVAIIDTNGDNTLTVGSVKGRFAISSDNAKNTVYLQMNSLLPEDTAVYTCAAGAWSALRRSVANYWGQGTQVTVSS
Take B3: the OD450 ratio sample/blank worked out at 0.713 in test [1], 0.788 in test [2] and 0.954 in test [3].

B4: IL6RPMP101D6 (VHH)
VHH: EVQLVESGGGLVQAGGSLRLSCTASGRTFSDYDMGWFRQAPGKERECVAIIDTNGDNTLIVGSVKGRFAISSDNAKNTVYLQMNSLLPEDTAVYTCAAGVWSSLRHTAANYWGQGTQVTVSS
As to B4, the OD450 ratio sample/blank in test [1] is 0.731; in test [2], 1.09; in test [3], 0.948.

B5: IL6RPMP108F7 (VHH)
VHH: EVQLVESGGGLVQAGGSLRLSCTASGRTFSDYDMGWFRQAPGKERECVAVIDTNGDNTLTVGSVKGRFAISRDNAKNTVYLQMNSLLPEDTAVYTCAAGAWSSLRSTAANYWGQGTQVTVSS
Regarding B5, the OD450 ratio sample/blank is 0.8 in test [1], 1.05 in test [2] and 1.02 in test [3].

B6: IL6RPMP101D1 (VHH)
VHH: EVQLVESGGGLVQAGGSLRLSCTASGRTFSDYDMGWFRQAPGKERECVAIIDTNGDNTLIVGSVKGRFAISSDNAKNTVYLQMNSLLPEDTAVYTCAAGVWSSLRHTAANYWGQGTQVTVSS
With B6, the OD450 ratio sample/blank in test [1] was determined as 0.79; in test [2], 0.812; in test [3] it was 0.928.

B7: IL6RPMP108D1 (VHH)
VHH: EVQLVESGGGLVQAGGSLRLSCTASGRTFSDYDMGWFRQAPGKERECVAVIDTNGDNTLTVGSVKGRFAISRDNAKNTVYLQMNSLLPEDTAVYTCAAGAWSSLRSTAANYWGQGTKVTVSS
For B7, the OD450 ratio sample/blank in test [1] is 0.79; in test [2] it was 0.87; in test [3] it was 1.04.

B8: IL6RPMP108C10 (VHH)
VHH: EVQLVESGGGLVQPGGSLRLSCTASGRTFSDYDMGWFRQAPGKERECVAVIDTNGDNTLTVGSVKGRFAISRDNAKNTVYLQMNSLLPEDTAVYTCAAGAWSSLRSTAANYWGQGTQVTVSS
Take B8: the OD450 ratio sample/blank was 0.795 in test [1], 1.07 in test [2] and 1.04 in test [3].

B9: IL6RPMP101C2 (VHH)
VHH: EVQLVESGGGLVQAGGSLRLSCTASGRTFSDYDMGWFRQAPGKERECVAIIDTNGDNTLIVGSVKGRFAISSDNAKNTVYLQMNSLLPEDTAVYTCAAGVWSSLRHTAANYWGQGTQVTVSS
B9: the OD450 ratio sample/blank in test [1] is 1.03; in test [2], 1.04; in test [3], 0.952.

B10: IL6RPMP101B2 (VHH)
VHH: EVQLVESGGGLVQAGGSLRLSCTASGRTFTDYDMGWFRQAPGKEREVVAIIDTNGDNTLTVGSVKGRFAISSDNAKNTVYLQMNSLLPEDTAVYTCAAGAWSALRRSVANYWGQGTQVTVSS
Regarding B10, the results for the OD450 ratio sample/blank in test [1], in test [2] and in test [3] were 0.727, 1.09 and 0.909, respectively.

B11: IL6RPMP101A5 (VHH)
VHH: EVQLVESGGGLVQAGGSLRLSCTASGRTFSDYDMGWFRQAPGKERECVAIIDTNGDNTLIVGSVKGRFAISSDNAKNTVYLQMNSLLPEDTAVYTCAAGVWSSLRHTAANYWGQGTQVTVSS
Consider B11, for which the OD450 ratio sample/blank amounted to 0.736 in test [1], 1.03 in test [2] and 0.95 in test [3].

B12: IL6RPMP108D10 (VHH)
VHH: EVQLVESGGGSVQAGGSLRLSCTASGRTFSDYDMGWFRQAPGKERECVAVIDTNGDNTLTVGSVKGRFAISRDNAKNTVYLQMNSLLPEDTAVYTCAAGAWSSLRSTAANYWGQGTQVTVSS
For B12, the values for the OD450 ratio sample/blank in test [1], in test [2] and in test [3] were 0.761, 0.961 and 1.03, respectively.

B13: IL6RPMP101G3 (VHH)
VHH: EVQLVESGGGLVQAGGSLRLSCTASGRTFSDYDMGWFRQAPGKERECVAIIDTNGDNTLIVGSVKGRFAISSDNAKNTVYLQMNSLLPEDTAVYTCAAGVWSSLRHTAANYWGQGTQVTVSS
On to B13, for which the OD450 ratio sample/blank is 0.773 in test [1], 1.08 in test [2] and 0.892 in test [3].

B14: IL6RPMP101A3 (VHH)
VHH: EVQLVESGGGLVQAGGPLRLSCTASGRTFTDYDMGWFRQAPGKEREVVAIIDTNGDNTLTVGSVKGRFAISSDNAKNTVYLQMNSLLPEDTAVYTCAAGAWSALRRSVANYWGQGTQVTVSS
On to B14, for which the OD450 ratio sample/blank in test [1] worked out at 0.687; in test [2], 1.08; in test [3] it was 0.946.

B15: IL6RPMP100A6 (VHH)
VHH: EVQLVESGGGLVQAGDSLRLSCLASGRSFKDDAMGWFRQAPGKEREFVSGIDWRGNIVDAESVKGRFTISRENAKNTLYLQMNHLKPEDTAVYYCAASSVFSDLRYRKNPKYWGQGTQVTVSS
Turning to B15, the OD450 ratio sample/blank in test [1] turned out to be 0.722; in test [2] it was 0.948; in test [3] it was 0.923.

B16: IL6RPMP107H5 (VHH)
VHH: EVPLVESGGGLVQAGGSLNLSCNASGDIGSINAMGWYRQAPGQQREWVAVITDTDSTIYPDSVKGRFAISRDGAKNTVHLRMSSLKPEDTAVYYCNAYQAGWGDYWGQGTQVTVSS
In the case of B16, the figures for the OD450 ratio sample/blank in test [1], in test [2] and in test [3] were 0.997, 0.901 and 1.03, respectively.

B17: IL6RPMP119A10 (VHH)
VHH: EVQLVESGGGLVQPGGSLRLSCAASKSIFDINAMYWHRQAPGKQRESVASITSGGMRNYADSVKDRFTISKDNAKNTVYLQMNGLKPDDTAVYYCGLGRYEGGVWRDYWGQGTQVTVSS
As for B17, the OD450 ratio sample/blank came out at 0.249 in test [1], 0.877 in test [2] and 0.989 in test [3].

B18: IL6RPMP107H2 (VHH)
VHH: KVQLVESGGGLVQPGGSLRLSCAASGFTFSSYAMSWVRRAPGKGLEWVSAINSDGTGSSYAPFVTGRFTASRDNAKNTLYLQMNSLKPEDTAVYYCTNSNRYDYADFSAVRGQGTQVTVSS
For B18, the figures for the OD450 ratio sample/blank in test [1], in test [2] and in test [3] were 0.6, 0.865 and 0.962, respectively.

B19: IL6RPMP120C10 (VHH)
VHH: EVQLVESGGGLVQAGGSLSLSCATSGRTISDDTMAWFRQAPGKEREFVAIITFNGARTHYSDSVRDRFTISRDNAKNTVYLQMNSLKSEDTAVYYCAASTKYYSSTYNYIHPAFYDIWGQGTQVTVSS
Take B19: the OD450 ratio sample/blank in test [1] is 0.0351; in test [2], 0.139; in test [3], 1.01.

B20: IL6RPMP103A4 (VHH)
VHH: EVQLVESGGGLVQPGGSLRLSCAASGSIFSINTMGWYRQVPGKQRELVATVRSGSITNYADSVQDRFTITRDIDENTVYLQMNSLKPEDTAVYYCLTRASVPGRGYQDYWGQGTQVTVSS
For the molecule B20, the OD450 ratio sample/blank in test [1] was 0.916; in test [2], 1.04; in test [3] it was 1.03.

B21: IL6RPMP101G4 (VHH)
VHH: EVQLVESGGGLVQAGGSLRLSCAASGFAFDDYAIGWFRQAPGKEREGVSSISSSNGNTYYADSVRGRFTISSDNAKNTVYLQMNSLKPEDTGVYYCAAIWGIFFNEKMPVGAYDYWGQGTQVTVSS
Take B21: the OD450 ratio sample/blank in test [1] is 0.815; in test [2] it was 0.796; in test [3], 1.02.

B22: IL6RPMP105B8 (VHH)
VHH: EVQLVESGGGLVRAGGSLRLSCAASGFAFDDYAIGWFRQAPGKEREGVSSISSSNGNTYYADSVRGRFTISSDNAKNTVYLQMNSLKPEDTGVYYCAAIWGIFFNEKMPVGAYDYWGQGTQVTVSS
Consider B22, for which the OD450 ratio sample/blank stood at 0.816 in test [1], 0.808 in test [2] and 1.03 in test [3].
